Source: patent US20250296971A1, “GASTRIC INHIBITORY PEPTIDE RECEPTOR LIGANDS” (priority 2021, published 2025)
*1 amine or outer side, *2 acyl side, *3 side chain or, on linkers, in order; H or OH if unused. Bridges are numbered along the chain shown (N, C = ends). Primed or numbered codes have the meaning given here. Side-chain parts run from the residue outwards. [ ]: non-standard residue; d: D form. The star is where a group is joined. EuDOTA = DOTA europium complex, O=C([O-])CN1CCN(CC(=O)[O-])CCN(CC(=O)*)CCN(CC(=O)[O-])CC1.[Eu+3]; Ttds = 1,13-diamino-4,7,10-trioxatridecan-succinamic acid, NCCCOCCOCCOCCCNC(=O)CCC(=O)*; NH(1-deoxy-D-glucityl) = OC[C@@H](O)[C@@H](O)[C@H](O)[C@@H](O)CN*; APAc″ = 4-amino-1-carboxymethylpiperidine, NC1CCN(CC(=O)*)CC1; dE(AGLU) = D-glutamic acid bearing 1-amino-1-deoxy-D-glucitol; Ttds(4) = 1,13-diamino-4,7,10-trioxatridecan-succinamic acid; Pro(trans-4-NH2) = O=C([C@@H]1C[C@@H](N[*:3])CN1[*:1])[*:2]; DOTA = O=C(O)CN1CCN(CC(=O)O)CCN(CC(=O)*)CCN(CC(=O)O)CC1; 2Lut = 2,6-lutidylidene bridge between two thiols; Trp(5-Cl) = N[C@@H](Cc1c[nH]c2ccc(Cl)cc12)C(=O)O; Pyridine(2,6-diCH2) = c1cc(C[*:1])nc(C[*:2])c1; Trp(5-F) = N[C@@H](Cc1c[nH]c2ccc(F)cc12)C(=O)O; Trp(6-F) = N[C@@H](Cc1c[nH]c2cc(F)ccc12)C(=O)O; APAc = 4-amino-1-carboxymethylpiperidine; 1Nal = N[C@@H](Cc1cccc2ccccc12)C(=O)O; mXylylene = c1cc(C[*:1])cc(C[*:2])c1; Glutaryl = O=C(CCCC(=O)[*:2])[*:1]; AGLU = 1-amino-1-deoxy-D-glucitol; Hyp = O=C(O)[C@@H]1C[C@@H](O)CN1; Cysteamide = C(CS[*:3])N[*:1]; dGlu(AGLU) = not defined here; Suc = O=C(CCC(=O)[*:2])[*:1]; 2Lut(3) = 2,6-lutidylidene; Ac6c = NC1(C(=O)O)CCCCC1; 3Lut = 3,5-lutidylidene; Api = NC1(C(=O)O)CCNCC1; Thp = NC1(C(=O)O)CCOCC1; Dap = NC[C@H](N)C(=O)O; Aib = CC(C)(N)C(=O)O

B1: AGLU-Glutar-Asp-Trp-5Clw-Hyp-Glu-leu-[Cys(2Lut)-Apc(GaDOTA)-Leu-Ile-Cys]-APAc-glu(AGLU)-NH2 (peptide)
peptide: DWXXEXCXLIC
modifications: N-term AGLU-Glutar; 5Clw; Hyp; leu (D-Leu); thioether cycle [Cys(2Lut)..Cys]; Apc(GaDOTA); C-term APAc-glu(AGLU)-NH2
B2: DOTA-Ttds-Asp-Trp-5Clw-Pro-Glu-leu-[Cys(3MeBn)-Egz-Leu-Ile-AET] (peptide)
peptide: {DOTA-Ttds}-DW[Trp(5-Cl)]PE[dL]C[Ac6c]LI[Cysteamide]
modifications: linker (positions not given here) via mXylylene; not fully specified (bridges); printed as DOTA-Ttds-Asp-Trp-5Clw-Pro-Glu-leu-[Cys(3MeBn)-Egz-Leu-Ile-AET]
B3: DOTA-Ttds-Asp-Trp-5Clw-Pro-Glu-leu-[Cys(3MeBn)-Thp-Leu-Ile-AET] (peptide)
peptide: {DOTA-Ttds}-DW[Trp(5-Cl)]PE[dL]C[Thp]LI[Cysteamide]
modifications: linker (positions not given here) via mXylylene; not fully specified (bridges); printed as DOTA-Ttds-Asp-Trp-5Clw-Pro-Glu-leu-[Cys(3MeBn)-Thp-Leu-Ile-AET]
B4: DOTA-Ttds-Asp-Trp-5Clw-Pro-Glu-leu-[Cys(3MeBn)-Apc-Leu-Ile-AET] (peptide)
peptide: {DOTA-Ttds}-DW[Trp(5-Cl)]PE[dL]C[Api]LI[Cysteamide]
modifications: linker (positions not given here) via mXylylene; not fully specified (bridges); printed as DOTA-Ttds-Asp-Trp-5Clw-Pro-Glu-leu-[Cys(3MeBn)-Apc-Leu-Ile-AET]
B5: DOTA-Ttds-Asp-Trp-5Clw-Pro-Glu-leu-[Cys(2Lut)-Aib-Leu-Ile-AET] (peptide)
peptide: {DOTA-Ttds}-DW[Trp(5-Cl)]PE[dL]C[Aib]LI[Cysteamide]
modifications: linker (positions not given here) via 2Lut(3); not fully specified (bridges); printed as DOTA-Ttds-Asp-Trp-5Clw-Pro-Glu-leu-[Cys(2Lut)-Aib-Leu-Ile-AET]
B6: DOTA-Ttds-Asp-Trp-5Clw-Pro-Glu-leu-[Cys(3Lut)-Aib-Leu-Ile-AET] (peptide)
peptide: {DOTA-Ttds}-DW[Trp(5-Cl)]PE[dL]C[Aib]LI[Cysteamide]
modifications: linker (positions not given here) via 3Lut; not fully specified (bridges); printed as DOTA-Ttds-Asp-Trp-5Clw-Pro-Glu-leu-[Cys(3Lut)-Aib-Leu-Ile-AET]
B7: DOTA-Ttds-Asp-Trp-5Clw-Pro-Glu-leu-[Dap(3MeBn)-Aib-Leu-Ile-AET] (peptide)
peptide: {DOTA-Ttds}-DW[Trp(5-Cl)]PE[dL][Dap][Aib]LI[Cysteamide]
modifications: linker (positions not given here) via mXylylene; not fully specified (bridges); printed as DOTA-Ttds-Asp-Trp-5Clw-Pro-Glu-leu-[Dap(3MeBn)-Aib-Leu-Ile-AET]
B8: DOTA-Ttds-Asp-Trp-5Clw-Hyp-Glu-leu-[Cys(3MeBn)-Aib-Leu-Ile-AET] (peptide)
peptide: {DOTA-Ttds}-DW[Trp(5-Cl)][Hyp]E[dL]C[Aib]LI[Cysteamide]
modifications: linker (positions not given here) via mXylylene; not fully specified (bridges); printed as DOTA-Ttds-Asp-Trp-5Clw-Hyp-Glu-leu-[Cys(3MeBn)-Aib-Leu-Ile-AET]

The binders below were run against human Gastric Inhibitory Peptide Receptor (human) (UniProt P48546) (assay: FACS competition with GIP-057 on CHO-K1-hGIPR cells; pIC50 category A: >8.0).
Chain of human Gastric Inhibitory Peptide Receptor (human) (P48546 22-466 limits assumed): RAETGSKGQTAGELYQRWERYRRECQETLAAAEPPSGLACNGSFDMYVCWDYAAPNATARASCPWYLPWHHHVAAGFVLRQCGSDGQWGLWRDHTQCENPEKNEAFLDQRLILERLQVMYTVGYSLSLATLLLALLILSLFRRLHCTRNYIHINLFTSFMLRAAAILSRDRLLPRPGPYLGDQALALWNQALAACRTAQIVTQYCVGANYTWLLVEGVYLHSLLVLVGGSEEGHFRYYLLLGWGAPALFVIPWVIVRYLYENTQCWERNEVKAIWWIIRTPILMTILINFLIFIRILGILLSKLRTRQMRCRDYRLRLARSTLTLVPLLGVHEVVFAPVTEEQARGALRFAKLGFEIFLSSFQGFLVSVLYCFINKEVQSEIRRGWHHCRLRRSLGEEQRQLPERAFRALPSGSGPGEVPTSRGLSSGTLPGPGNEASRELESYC

pIC50, > 8 pic50:
{EuDOTA-dGlu(AGLU)-APAc}-DW[Trp(5-Cl)][Hyp]E[dL]C[Thp]LIC-{APAc-dGlu(AGLU)-NH2} (linker 7-11 via 2Lut; reading uncertain; also: Eu complex of DOTA) [EuDOTA-glu(AGLU)-APAc-Asp-Trp-5Clw-Hyp-Glu-leu-[Cys(2Lut)-Thp-Leu-Ile-Cys]-APAc-glu(AGLU)-NH2], B1, {AGLU-Glutaryl}-DW[Trp(5-Cl)][Pro(trans-4-NH2)]E[dL]C[Api](GaNODAGA)LIC-{APAc-dE(AGLU)-NH2} (linker 7-11 via Pyridine(2,6-diCH2)) [AGLU-Glutar-Asp-Trp-5Clw-Tap-Glu-leu-[Cys(2Lut)-Apc(GaNODAGA)-Leu-Ile-Cys]-APAc-glu(AGLU)-NH2], Suc-W[Trp(5-Cl)][Hyp]E[dL]C[Api]([Glutaryl-NH(1-deoxy-D-glucityl)])LIC-{APAc-Lys(DOTA)-NH2} (linker 6-10 via Pyridine(2,6-diCH2)) [HO-Succinyl-Trp-5Clw-Hyp-Glu-leu-[Cys(2Lut)-Apc(AGLU-Glutar)-Leu-Ile-Cys]-APAc-Lys(DOTA)-NH2], Ac-D[Trp(5-F)][1Nal]PE[dL]C[Aib]LIC-{Ttds(4)-K(DOTA)-NH2} (linker 7-11 via mXylylene) [Ac-Asp-5Fw-1Ni-Pro-Glu-leu-[Cys(3MeBn)-Aib-Leu-Ile-Cys]-Ttds-Lys(DOTA)-NH2], Ac-D[Trp(6-F)][1Nal]PE[dL]C[Aib]LIC-{Ttds(4)-K(DOTA)-NH2} (linker 7-11 via mXylylene) [Ac-Asp-6Fw-1Ni-Pro-Glu-leu-[Cys(3MeBn)-Aib-Leu-Ile-Cys]-Ttds-Lys(DOTA)-NH2], B2, B3, B4, {DOTA-APAc″}-DW[Trp(5-Cl)]PE[dL]C[Aib]LI[Cysteamide] (linker 7-11 via mXylylene) [DOTA-APAc-Asp-Trp-5Clw-Pro-Glu-leu-[Cys(3MeBn)-Aib-Leu-Ile-AET]], B5, B6, B7, DWXPEXCXLI (N-term DOTA-Ttds; 5Clw; leu (D-Leu); cycle [Cys(3MeBn)..en]; Aib) [DOTA-Ttds-Asp-Trp-5Clw-Pro-Glu-leu-[Cys(3MeBn)-Aib-Leu-Ile-en]], B8
